Key:
Assay type in all cases: cell-based
TR = target: T1, TR (Homo sapiens, UniProt P10828); test: CAT reporter assay TR/DR4-tk-CAT in HeLa cells; design: expressed in transfected cells; settings: 3 μg SRC-1, Triac 2×10^−8 M
T1 sequence (P10828 1-461): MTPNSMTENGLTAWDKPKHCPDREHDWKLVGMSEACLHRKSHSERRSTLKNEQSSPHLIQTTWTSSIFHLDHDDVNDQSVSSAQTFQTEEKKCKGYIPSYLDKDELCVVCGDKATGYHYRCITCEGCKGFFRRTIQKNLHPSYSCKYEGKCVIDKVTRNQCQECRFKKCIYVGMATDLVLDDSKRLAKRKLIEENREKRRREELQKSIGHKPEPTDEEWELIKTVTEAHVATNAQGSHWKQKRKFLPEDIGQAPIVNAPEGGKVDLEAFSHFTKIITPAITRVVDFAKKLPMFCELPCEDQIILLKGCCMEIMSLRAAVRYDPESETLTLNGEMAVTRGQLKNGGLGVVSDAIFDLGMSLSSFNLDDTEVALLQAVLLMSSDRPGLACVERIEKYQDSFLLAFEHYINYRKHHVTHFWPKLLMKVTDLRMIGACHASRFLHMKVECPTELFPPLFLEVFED
Description: (§1) Biol. 13, 6501-6508), Sp1 and Sp1-tk-CAT (Courey, A. J. and Tjian, R. (1988), Cell 55, 887-898), CREB and CRE-tk-CAT (Chrivia, J. C. et al., (1993), Nature 365, 855) and GAL4VP16 and 17mer-tk-CAT (Baniahmad, A. et al., (1992), EMBO J. 11, 1015-1023) have been previously described and the above references are incorporated herein by reference in their entirety, including any drawings.
(§2) Lipofectin (GibcoBRL) was selected for transfection of Hela cells.
(§3) HeLa cells were cotransfected with 0.5 μg of cDNAs encoding various steroid receptors indicated and 5 μg of their cognates HREs containing reporters, including PR/PRE2-TATA-CAT, ER/ERE2-TATA-CAT, GR/PRE2-TATA-CAT, TR-/DR4-tk-CAT and RXR/DR1-tk-CAT, along with 3 μg of SRC-1 or empty expression vector. Cells were then treated with their corresponding ligands (PR:R5020, ER:estradiol, GR:dexamethasone, TR:Triac, RXR:9-cis retinoic acid) at a concentration of 2×10^−8M. The CAT activity of the reporter was determined using 14 μg of protein extract.

GR = target: T2, GR (Homo sapiens, UniProt P04150); test: CAT reporter assay GR/PRE2-TATA-CAT in HeLa cells; settings: 3 μg SRC-1, dexamethasone 2×10^−8 M
T2 construct: expressed in transfected cells; host or cells: HeLa
T2 sequence (P04150 1-777): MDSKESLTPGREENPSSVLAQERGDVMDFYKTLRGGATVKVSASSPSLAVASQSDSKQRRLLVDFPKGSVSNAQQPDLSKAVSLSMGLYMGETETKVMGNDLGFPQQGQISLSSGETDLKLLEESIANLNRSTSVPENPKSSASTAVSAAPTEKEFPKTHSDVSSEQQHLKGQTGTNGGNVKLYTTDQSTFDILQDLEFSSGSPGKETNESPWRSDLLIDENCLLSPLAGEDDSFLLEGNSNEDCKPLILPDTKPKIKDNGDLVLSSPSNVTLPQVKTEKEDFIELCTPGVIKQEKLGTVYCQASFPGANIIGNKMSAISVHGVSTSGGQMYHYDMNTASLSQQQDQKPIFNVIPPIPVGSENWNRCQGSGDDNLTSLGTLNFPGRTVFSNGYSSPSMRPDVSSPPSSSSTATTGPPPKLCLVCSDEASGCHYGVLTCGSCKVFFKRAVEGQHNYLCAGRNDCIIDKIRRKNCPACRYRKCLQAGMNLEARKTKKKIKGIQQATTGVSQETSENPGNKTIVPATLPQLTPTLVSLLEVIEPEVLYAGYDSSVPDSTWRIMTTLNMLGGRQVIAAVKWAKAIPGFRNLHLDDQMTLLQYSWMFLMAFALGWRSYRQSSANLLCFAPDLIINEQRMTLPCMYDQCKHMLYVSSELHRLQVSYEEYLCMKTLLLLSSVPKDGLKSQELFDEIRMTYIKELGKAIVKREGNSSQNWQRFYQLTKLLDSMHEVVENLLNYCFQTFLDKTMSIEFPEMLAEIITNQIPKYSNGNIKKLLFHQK
Description: as §1, §2, §3

hPR = target: T3, hPR (Homo sapiens, UniProt P06401); test: Squelching of hPR transactivation by hER and its reversal by SRC-1, CAT assay in HeLa cells
T3 construct: expressed in transfected cells; host or cells: HeLa
T3 sequence (P06401 1-933): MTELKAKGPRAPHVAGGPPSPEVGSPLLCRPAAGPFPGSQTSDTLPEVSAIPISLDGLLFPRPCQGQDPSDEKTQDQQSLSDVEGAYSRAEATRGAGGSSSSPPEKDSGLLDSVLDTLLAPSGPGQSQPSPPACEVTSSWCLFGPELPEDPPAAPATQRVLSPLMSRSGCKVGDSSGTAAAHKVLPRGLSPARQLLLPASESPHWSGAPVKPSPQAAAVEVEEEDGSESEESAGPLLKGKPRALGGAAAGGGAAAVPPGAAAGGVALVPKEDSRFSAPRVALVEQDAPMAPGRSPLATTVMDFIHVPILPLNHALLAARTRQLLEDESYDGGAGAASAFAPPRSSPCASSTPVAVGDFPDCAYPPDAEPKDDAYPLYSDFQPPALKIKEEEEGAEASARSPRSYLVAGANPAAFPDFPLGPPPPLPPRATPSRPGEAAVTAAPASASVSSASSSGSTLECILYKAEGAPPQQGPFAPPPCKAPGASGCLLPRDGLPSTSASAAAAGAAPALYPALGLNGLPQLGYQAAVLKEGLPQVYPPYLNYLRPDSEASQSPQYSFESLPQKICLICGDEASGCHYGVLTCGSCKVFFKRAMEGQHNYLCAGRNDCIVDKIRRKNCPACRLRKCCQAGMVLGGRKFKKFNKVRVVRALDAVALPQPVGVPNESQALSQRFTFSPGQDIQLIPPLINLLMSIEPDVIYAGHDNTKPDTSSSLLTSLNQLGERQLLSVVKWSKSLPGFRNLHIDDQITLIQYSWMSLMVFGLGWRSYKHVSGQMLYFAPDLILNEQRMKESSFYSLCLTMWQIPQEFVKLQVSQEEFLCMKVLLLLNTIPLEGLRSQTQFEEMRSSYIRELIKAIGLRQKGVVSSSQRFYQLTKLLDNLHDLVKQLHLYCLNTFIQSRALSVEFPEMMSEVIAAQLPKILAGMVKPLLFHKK
Description: as §2
HeLa cells were transfected with 1 μg of both hPR and hER expression vectors, together with 5 μg of PRE2-TATA-CAT and increasing amounts of SRC-1. Cells were then exposed to ligands R5020 and/or E2 (2×10^−8 M) and CAT activities determined 42 h later using 40 μg of proteins extract. The percentage of chloramphenicol conversion to the mono and diacetylated form was determined and represents the average of three independent experiments (Xn=3±SEM).

B1: steroid receptor coactivator-one (SRC-1), full-length (protein)
chain: MSIPRVNPSVNPSISPAHGVARSSTLPPSNSNMVSTRINRQQSSDLHSSSHSNSSNSQGSFGCSPGSQIVANVALNKGQASSQSSKPSLNLNNPPMEGTGISLAQFMSPRRQVTSGLATRPRMPNNSFPPNISTLSSPVGMTSSACNNNNRSYSNIPVTSLQGMNEGPNNSVGFSASSPVLRQMSSQNSPSRLNIQPAKAESKDNKEIASTLNEMIQSDNSSSDGKPLDSGLLHNNDRLSDGDSKYSQTSHKLVQLLTTTAEQQLRHADIDTSCKDVLSCTGTSNSASANSSGGSCPSSHSSLTARHKILHRLLQEGSPSDITTLSVEPDKKDSASTSVSVTGQVQGNSSIKLELDASKKKESKDHQLLRYLLDKDEKDLRSTPNLSLDDVKVKVEKKEQMDPCNTNPTPMTKATPEEIKLEAQSQFTADLDQFDQLLPTLEKAAQLPGLCETDRMDGAVTSVTIKSEILPASLQSATARPTSRLNRLPELELEAIDNQFGQPGTGDQIPWTNNTVTAINQSKSEDQCISSQLDELLCPPTTVEGRNDEKALLEQLVSFLSGKDETELAELDRALGIDKLVQGGGLDVLSERFPPQQATPPLIMEERPNLYSQPYSSPFPTANLPSPFQGMVRQKPSLGTMPVQVTPPRGAFSPGMGMQPRQTLNRPPAAPNQLRLQLQQRLQGQQQLIHQNRQAILNQFAATAPVGINMRSGMQQQITPQPPLNAQMLAQRQRELYSQQHRQRQLIQQQRAMLMRQQSFGNNLPPSSGLPVQTGNPRLPQGAPQQFPYPPNYGTNPGTPPASTSPFSQLAANPEASLANRNSMVSRGMTGNIGGQFGTGINPQMQQNVFQYPGAGMVPQGEANFAPSLSPGSSMVPMPIPPPQSSLLQQTPPASGYQSPDMKAWQQGAIGNNNVFSQAVQNQPTPAQPGVYNNMSITVSMAGGNTNVQNMNPMMAQMQMSSLQMPGMNTVCPEQINDPALRHTGLYCNQLSSTDLLKTEADGTQQVQQVQVFADVQCTVNLVGGDPYLNQPGPLGTQKPTSGPQTPQAQQKSLLQQLLTE
- effect on TR transcriptional activity (TR): enhance
- effect on GR transcriptional activity (GR): enhance
- reversal of hER squelching of hPR transactivation (hPR; HeLa cells, increasing amounts of SRC-1, dose-dependent, in the presence of estrogen): ~16 fold
- stimulation of PR transactivation (hPR; highest concentration of SRC-1 (2 μg), without estrogen squelching): ~5 fold

Source: patent publication US6380373B1, “Steroid receptor coactivator compositions and methods of use” (Baylor College of Medicine, priority 1995, dated 2002)
